From the supplement of paper PMC10201428 come the findings set out here.

± gives the standard deviation of the averaged measurements.

The test system of series [1] is VchCAST RNA-guided transposition machinery (E. coli BL21(DE3) host, lacZ target). Nature of the series: relative integration efficiency (T-RL orientation) vs wild-type transposon end (log2 (normalized fold change)); transposon end mutated: right end (5 bp flank + 75 bp right end); higher = more efficient transposition. An outline of the steps:
(§1)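 Co-transformation of E. coli BL21(DE3) combined a pUC57 mini-transposon donor, holding barcoded pools of 1549 left-end or 1849 right-end variants, with a T7-driven plasmid encoding a CRISPR array, tniQ-cas8-cas7-cas6 and tnsA-tnsB-tnsC. After plating with 0.1 mM IPTG at 37°C for 18 h, input plasmids and genomic integration junctions were PCR-amplified and Illumina-sequenced across two biological output replicates, with four reference barcodes. Relative integration efficiency is the normalised, log-transformed output/input barcode fold change.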

Series [2] shares this test system. Nature of the series: relative integration efficiency (T-LR orientation) vs wild-type transposon end (log2 (normalized fold change)); transposon end mutated: right end (5 bp flank + 75 bp right end); higher = more efficient transposition. An outline of the steps:
as §1

Consider “ACATTTGTTGATCCAACCATAAAATGATAATTACACCCATAAATGGATCATTATCACACCCAATTTAACTATAACGCTCTGATCATAGTCAGACCAACATTGCTACGACCCGTATTCGCACCGACAC”, for which the “relative integration efficiency (log2)” value in series [1] is -1.74 ± 0.32; in series [2], 1.13 ± 0.26.

Turning to “ACATTTGTTGATCCAACCATAAAATGATAATTACACCCATAAATTCATAATTATCACACCCAATTTAACTATAACGCTCTGATCATAGTCAGACCAACATTGCTACGACCCGTATTCGCACCGACAC”, the “relative integration efficiency (log2)” value in series [1] is -2.07 ± 0.2; in series [2], 0.916 ± 0.17.

In the case of “ACATTTGTTGATCCAACCATAAAATGATAATTACACCCATAAATTCATCATTATCACACCCAATTTAACTATAACGCTCTGATCATAGTCAGACCAACATTGCTACGACCCGTATTCGCACCGACAC”, the “relative integration efficiency (log2)” value in series [1] is -2.42 ± 0.5; in series [2], 1.23 ± 0.14.

Consider “ACATTTGTTGATCCAACCATAAAATGATAATTACACCCATAAATTGATCATTATCACACCCAATTTAACTATAACGCTCTGATCATAGTCAGACCAACATTGCTACGACCCGTATTCGCACCGACAC”, for which the “relative integration efficiency (log2)” value in series [1] was -1.7 ± 0.3; in series [2], 1.98 ± 0.02.

Consider “ACATTTGTTGATTGAACCATAAAATGATAATTACACCCATAAATTGATAATTATCACACCCATAAATTGATATTGCCTCTGATCATAGTCAGACCAACATTGCTACGACCCGTATTCGCACCGACAC”, for which the figures for the “relative integration efficiency (log2)” value in series [1] and in series [2] were -0.172 ± 0.032 and -1.4 ± 0.71, respectively.

As for “ACATTTGTTGATTGTTCCATAAAATGATAATTACACCCATAAATTGATAATTATCACACCCATAAATTGATATTGCCTCTGATCATAGTCAGACCAACATTGCTACGACCCGTATTCGCACCGACAC”, the “relative integration efficiency (log2)” value in series [1] was -1.3 ± 0.19; in series [2], -1.3 ± 0.53.

With “ACATTTGTTGCGACAACCATAAAATGATAATTACACCCATAAATTGATAATTATCACACCCATAAATTGATATTGCCTCTGATCATAGTCAGACCAACATTGCTACGACCCGTATTCGCACCGACAC”, the figures for the “relative integration efficiency (log2)” value in series [1] and in series [2] were -0.447 ± 0.038 and -1.69 ± 0.07, respectively.

On to “ACATTTGTTGCGCAAACCATAAAATGATAATTACACCCATAAATTGATAATTATCACACCCATAAATTGATATTGCCTCTGATCATAGTCAGACCAACATTGCTACGACCCGTATTCGCACCGACAC”, for which the “relative integration efficiency (log2)” value was -0.839 ± 0.087 in series [1] and -2.91 ± 0.35 in series [2].

On to “ACATTTGTTGTAACAACCATAAAATGATAATTACACCCATAAATTGATAATTATCACACCCATAAATTGATATTGCCTCTGATCATAGTCAGACCAACATTGCTACGACCCGTATTCGCACCGACAC”, for which the “relative integration efficiency (log2)” value in series [1] was -0.2 ± 0.038; in series [2], -1.09 ± 0.54.

Consider “ACATTTGTTGTATGAACCATAAAATGATAATTACACCCATAAATTGATAATTATCACACCCATAAATTGATATTGCCTCTGATCATAGTCAGACCAACATTGCTACGACCCGTATTCGCACCGACAC”, for which the entries for the “relative integration efficiency (log2)” value in series [1] and in series [2] were -0.782 ± 0.022 and -2.29 ± 0.23, respectively.

On to “ACATTTGTTTATACAACCATAAAATGATAATTACACCCATAAATGGATAATTATCACACCCAATTTAACTATAACGCTCTGATCATAGTCAGACCAACATTGCTACGACCCGTATTCGCACCGACAC”, for which the “relative integration efficiency (log2)” value is -1.86 ± 0.27 in series [1] and -0.232 ± 0.5 in series [2].

On to “ACATTTGTTTATACAACCATAAAATGATAATTACACCCATAAATGGATTATTATCACACCCAATTTAACTATAACGCTCTGATCATAGTCAGACCAACATTGCTACGACCCGTATTCGCACCGACAC”, for which the “relative integration efficiency (log2)” value in series [1] is -2.39 ± 0.61; in series [2], -1.01 ± 0.12.

Consider “ACATTTGTTTATACAACCATAAAATGATAATTACACCCATAAATTCATAATTATCACACCCAATTTAACTATAACGCTCTGATCATAGTCAGACCAACATTGCTACGACCCGTATTCGCACCGACAC”, for which the “relative integration efficiency (log2)” value is -2.45 ± 0.3 in series [1] and -0.939 ± 0.036 in series [2].

For the sequence “ACATTTGTTTATACAACCATAAAATGATAATTACACCCATAAATTCATTATTATCACACCCAATTTAACTATAACGCTCTGATCATAGTCAGACCAACATTGCTACGACCCGTATTCGCACCGACAC”, the “relative integration efficiency (log2)” value in series [1] is -3.21 ± 0.16; in series [2], -0.961 ± 0.16.
